Experiments:
[1] = target: EcGspD fragment 1-237 (peri-GspD), N0-N1-N2 subdomains of the secretin from enterotoxigenic E. coli (enterotoxigenic E. coli); experiment: SPR
cryo-EM structure = target: the molecule itself; experiment: cryo-EM structure

| Molecule | Kd [1] [µM] | stoichiometry N (cryo-EM structure) |
| --- | --- | --- |
| B-pentamer of heat-labile enterotoxin (LTB5) (from UniProt P32890 22-124) (complex) | 15.5 |  |
| V. cholerae GspD secretin (VcGspD), full-length recombinant channel (natural protein) NEFSASFKGTDIQEFINIVGRNLEKTIIVDPSVRGKVDVRSFDTLNEEQYYSFFLSVLEVYGFAVVEMDNGVLKVIKSKDAKTSAIPVLSGEERANGDEVITQVVAVKNVSVRELSPLLRQLIDNAGAGNVVHYDPANIILITGRAAVVNRLAEIIRRVDQAGDKEIEVVELNNASAAEMVRIVEALNKTTDAQNTPEFLKPKFVADERTNSILISGDPKVRERLKRLIKQLDVEMAAKGNNRVVYLKYAKAEDLVEVLKGVSENLQAEKGTGQPTTSKRNEVMIAAHADTNSLVLTAPQDIMNAMLEVIGQLDIRRAQVLIEALIVEMAEGDGINLGVQWGSLESGSVIQYGNTGASIGNVMIGLEEAKDTTQTKAVYDTNNNFLRNETTTTKGDYTKLASALSSIQGAAVSIAMGDWTALINAVSNDSSSNILSSPSITVMDNGEASFIVGEEVPVITGSTAGSNNDNPFQTVDRKEVGIKLKVVPQINEGNSVQLNIEQEVSNVLGANGAVDVRFAKRQLNTSVMVQDGQMLVLGGLIDERALESESKVPLLGDIPLLGQLFRSTSSQVEKKNLMVFIKPTIIRDGVTADGITQRKYNYIRAEQLFRAEKGLRLLDDASVPVLPKFGDDRRHSPEIQAFIEQMEAKQ |  | 12 |
